Test results from patent US11306156.
Values belong to the substance of their own block, whether it stands above or below them.

Assays:
[1] = target: D3H44 light chain Q124R_Q160K_T178R (Kabat), N-terminal HA or FLAG tag; assay: LCCA co-expression, competing light chain m40, L1:L2 DNA 1:3 normalized to 1:1, SPR tag read-out
[2] = target: D3H44 light chain Q124E_Q160E_T180E (Kabat), N-terminal HA or FLAG tag; assay: LCCA co-expression, competing light chain m38, L1:L2 DNA 1:9 normalized to 1:1, SPR tag read-out
[3] = target: D3H44 light chain Q124E_T180E (Kabat), N-terminal HA or FLAG tag; assay: LCCA co-expression, competing light chain m36, L1:L2 DNA 1:3 normalized to 1:1, SPR tag read-out
[4] = target: D3H44 light chain Q124E_T180E (Kabat), N-terminal HA or FLAG tag; assay: LCCA co-expression, competing light chain m38, L1:L2 DNA 1:3 normalized to 1:1, SPR tag read-out
[5] = target: D3H44 light chain Q124E_Q160E_T180E (Kabat), N-terminal HA or FLAG tag; assay: as above
[6] = target: D3H44 light chain Q124E_T178E (Kabat), N-terminal HA or FLAG tag; assay: as above
[7] = target: D3H44 light chain S131K (Kabat), N-terminal HA or FLAG tag; assay: LCCA co-expression, competing light chain m37, L1:L2 DNA 1:3 normalized to 1:1, SPR tag read-out
[8] = target: D3H44 light chain Q124R_Q160K_T178R (Kabat), N-terminal HA or FLAG tag; assay: as above
[9] = target: D3H44 light chain S131K (Kabat), N-terminal HA or FLAG tag; assay: LCCA co-expression, competing light chain m37, L1:L2 DNA 1:9 normalized to 1:1, SPR tag read-out
[10] = target: D3H44 light chain Q124E_T180E (Kabat), N-terminal HA or FLAG tag; assay: LCCA co-expression, competing light chain m36, L1:L2 DNA 1:9 normalized to 1:1, SPR tag read-out
[11] = target: D3H44 light chain Q124R_Q160K_T178R (Kabat), N-terminal HA or FLAG tag; assay: LCCA co-expression, competing light chain m39, L1:L2 DNA 1:3 normalized to 1:1, SPR tag read-out
[12] = target: D3H44 light chain Q124R_Q160K_T178R (Kabat), N-terminal HA or FLAG tag; assay: LCCA co-expression, competing light chain m39, L1:L2 DNA 1:9 normalized to 1:1, SPR tag read-out
[13] = target: D3H44 light chain L135W_S176L (Kabat), N-terminal HA or FLAG tag; assay: LCCA co-expression, competing light chain m34, L1:L2 DNA 1:3 normalized to 1:1, SPR tag read-out
[14] = target: D3H44 light chain F116A_L135V (Kabat), N-terminal HA or FLAG tag; assay: LCCA co-expression, competing light chain m35, L1:L2 DNA 1:3 normalized to 1:1, SPR tag read-out
[15] = target: D3H44 light chain F116A_L135V (Kabat), N-terminal HA or FLAG tag; assay: LCCA co-expression, competing light chain m35, L1:L2 DNA 1:9 normalized to 1:1, SPR tag read-out
[16] = target: D3H44 light chain L135W_S176L (Kabat), N-terminal HA or FLAG tag; assay: LCCA co-expression, competing light chain m34, L1:L2 DNA 1:9 normalized to 1:1, SPR tag read-out
[17] = target: D3H44 light chain S131T_L135F_S176F_T178F (Kabat), N-terminal HA or FLAG tag; assay: LCCA co-expression, competing light chain m34, L1:L2 DNA 1:3 normalized to 1:1, SPR tag read-out
[18] = target: D3H44 light chain F116A_L135V (Kabat), N-terminal HA or FLAG tag; assay: LCCA co-expression, competing light chain m33, L1:L2 DNA 1:9 normalized to 1:1, SPR tag read-out
[19] = target: D3H44 light chain S131T_L135F_S176F_T178F (Kabat), N-terminal HA or FLAG tag; assay: LCCA co-expression, competing light chain m34, L1:L2 DNA 1:9 normalized to 1:1, SPR tag read-out
[20] = target: D3H44 light chain F116A_L135V (Kabat), N-terminal HA or FLAG tag; assay: LCCA co-expression, competing light chain m33, L1:L2 DNA 1:3 normalized to 1:1, SPR tag read-out
[21] = target: tissue factor (TF) antigen (UniProt P13726); assay: SPR (ProteOn XPR36), Fab captured on anti-penta-His surface, TF as analyte, 1:1 fit; estimated value from a Fab differing only in the L chain tag (HA or FLAG)
[22] = target: tissue factor (TF) antigen (UniProt P13726); assay: SPR (ProteOn XPR36), Fab captured on anti-penta-His surface, TF as analyte; reference wild-type D3H44 Fab; estimated value from a Fab differing only in the L chain tag
[23] = target: tissue factor (TF) antigen (human (from the antibody's name 'anti-human tissue factor'; not stated for the antigen lot in the assay)) (UniProt P13726); assay: SPR (ProteOn XPR36), Fab captured on anti-penta His, TF analyte; against wild-type D3H44 Fab; batch C by the KD cell's +
[24] = target: tissue factor (TF) antigen (human (from the antibody's name 'anti-human tissue factor'; not stated for the antigen lot in the assay)) (UniProt P13726); assay: SPR (ProteOn XPR36): Fab captured via His tag on anti-penta His surface, TF injected, 1:1 fit; batch C (+)

H1L1:H1L2 normalized median ratio [2]: 12 of 100 | H1L1:H1L2 normalized median ratio [5]: 16 of 100 | H1L1:H1L2 normalized median ratio [11]: 84 of 100 | H1L1:H1L2 normalized median scalar value ln(r1/f1) [11]: 1.68 | H1L1:H1L2 normalized median ratio [12]: 88 of 100 | H1L1:H1L2 normalized median scalar value ln(r1/f1) [12]: 1.97
Substance: D3H44 Fab heavy chain L143E_K145T_Q179D (Kabat), C-terminal ABD2-His6 tag

Change in median values of KD of h1l1 Fab heterodimer compared to wild type (-(log(KD design)-log(KD wt))) [23]: -0.03 | Kd [24]: 0.17 nM
Substance: D3H44 Fab heterodimer, H1 Q39R_Q179K / L1 Q38E_Q124E_Q160E_T180E (H1L1 Fab of LCCA set 9827)

Further lines, the substance ahead of its results:

Substance: D3H44 Fab heavy chain Q179K (Kabat), C-terminal ABD2-His6 tag
H2L2:H2L1 normalized median ratio [1]: 4 of 100 | H2L2:H2L1 normalized median ratio [2]: 88 of 100 | H2L2:H2L1 normalized median ratio [3]: 98 of 100 | H2L2:H2L1 normalized median ratio [4]: 96 of 100 | H2L2:H2L1 normalized median ratio [5]: 87 of 100 | H2L2:H2L1 normalized median ratio [6]: 96 of 100 | H2L2:H2L1 normalized median ratio [7]: 2 of 100 | H2L2:H2L1 normalized median ratio [8]: 4 of 100 | H2L2:H2L1 normalized median ratio [9]: 12 of 100 | H2L2:H2L1 normalized median ratio [10]: 88 of 100 | H2L2:H2L1 normalized median ratio [11]: 13 of 100 | H2L2:H2L1 normalized median ratio [12]: 12 of 100

Substance: D3H44 Fab heavy chain A139G_V190A (Kabat), C-terminal ABD2-His6 tag
H1L1:H1L2 normalized median ratio [13]: 32 of 100 | H1L1:H1L2 normalized median scalar value ln(r1/f1) [13]: -0.77 | H1L1:H1L2 normalized median ratio [14]: 68 of 100 | H1L1:H1L2 normalized median ratio [15]: 28 of 100 | H1L1:H1L2 normalized median ratio [16]: 72 of 100 | H1L1:H1L2 normalized median scalar value ln(r1/f1) [16]: 0.94

Substance: D3H44 Fab heavy chain A139W_S188L (Kabat), C-terminal ABD2-His6 tag
H2L2:H2L1 normalized median ratio [13]: 34 of 100 | H2L2:H2L1 normalized median ratio [17]: 41 of 100 | H2L2:H2L1 normalized median ratio [18]: 55 of 100 | H2L2:H2L1 normalized median ratio [14]: 66 of 100 | H2L2:H2L1 normalized median ratio [15]: 75 of 100 | H2L2:H2L1 normalized median ratio [16]: 25 of 100 | H2L2:H2L1 normalized median ratio [19]: 45 of 100 | H2L2:H2L1 normalized median ratio [20]: 59 of 100

Substance: D3H44 Fab heterodimer H1 L143D_K145T_Q179E / L1 T178R
Kd [21]: 0.28 nM | Change in median values of KD of h1l1 Fab heterodimer compared to wild type (-(log(KD design)-log(KD wt))) [22]: -0.25
